US11707527B2, “Nanoscale drug carrier capable of passing through blood-brain barrier” (KUNSHAN XINYUNDA BIOTECH CO., LTD., priority 2017, dated 2023)

Assays:
[1] = test system: human BBB brain endothelial cells hCMEC/D3; experiment: Endocytosis and lysosome co-localization in human brain endothelial cells (confocal microscopy); assay type: cell-based; conditions: hCMEC/D3, 4 h incubation
Experimental: Human BBB brain endothelial cells hCMEC/D3 slides (BD Biosciences) were placed in a 6-well plate (with well diameter of 34.8 mm, Corning, USA) for culturing above to a density of about 60%, then the experiment was conducted. 1 μM FITC-labeled H-ferritin above was added, and incubated respectively for 5 min and 6 min at 37° C. Then the cells were washed with 0.3% BSA/PBS for three times, and finally fixed with 4% paraformaldehyde. After being washed with PBS (pH7.4) for three times, cell nuclei were stained with DAPI (Roche Applied Science) 10 min at room temperature. After being washed by PBS for three times again, the slides were mounted with a mounting medium, and observed by laser confocal microscopy (Olympus FluoView FV-1000, Tokyo, Japan).
Human BBB brain endothelial cells hCMEC/D3 slides (BD Biosciences) were placed in a 6-well plate for culturing to a density of about 60%, and then the experiment was conducted. […] The cells were fixed with 4% paraformaldehyde after being washed with PBS for three times. Then 0.1% Triton X-100 was used for cell permeabilization After being washed with PBS again, the cells were blocked in 5% goat serum (ZSGB-BIO) 30 min at room temperature, and then incubated in Alexa Fluor®555-labeled antibodies and lysosome marker molecules LAMP1 (1:200, clone H4A3; Invitrogen) for 1 h at 37° C. […]

[2] = test system: hCMEC/D3 BBB model; experiment: In vitro BBB model (Transwell) transcytosis; assay type: in vitro ADME, human; conditions: 50 μg/mL FITC-labeled, 6 h, upper to lower chamber
Experimental: The cells were cultured at 37° C. under CO2 in an incubator to confluence (2-3d). After the confluence state of hCMEC/D3 was observed by a microscope, medium (EBM-2 medium) was added to an upper chamber of the Transwell plate, resulting a more than 0.5 cm difference of liquid level between the upper and lower chamberst. If an obvious difference between the two chambers can be still observed after 4 h, it was regarded as completely confluent. The wells of Transwell without inoculated cells were used as a blank control.
Equal amount (50 μg/mL) of FITC-labeled H-ferritins and the control FITC-labeled BSA were dissolved in EBM-2 medium (Gibco Life Technologies Inc., UK). […] The total volume (V) of the lower chamber was measured after being cultured for 6 h in a cell incubator. And then, 50 μL samples were respectively taken out of the lower chamber, and H-ferritin or BSA concentration (C) was measured by measuring fluorescence intensity (wavelength 488 nm). Afterwards, transcytosis efficiency was calculated according to the following formula: transcytosis efficiency %=(Clower chamber×Vlower chamber)/(Cinitial×Vinitial)×100%.

[3] = test system: human BBB brain endothelial hCMEC/D3 cells; experiment: Specific binding of FITC-labeled ferritin to human brain endothelial cells (flow cytometry); assay type: cell-based; conditions: 50 μg/ml FITC-labeled protein, 45 min, 4° C., hCMEC/D3, vs FITC-BSA
Experimental: Human BBB brain endothelial hCMEC/D3 cells were cultured to about 1×10^5 (100×20 mm, dish Corning, USA) and digested with trypsin, then the cells were washed with 0.3% (w/v) BSA/PBS (pH7.4) for three times. […] The cells were washed with 0.3% BSA/PBS for three times, finally resuspended in PBS (pH7.4). And fluorescence of the samples was tested by flow cytometry (at a wavelength of 488 nm).

B1: chimeric human H-ferritin: human L-ferritin with outer surface sequences replaced with SEQ ID NO: 1-3 of H-ferritin; SEQ ID NO: 7 (protein)
chain: MTSQVRQNYHQDSEAAINRQINLELYASYVYLSMSYYFDRDDVALEGVSHFFRELAEEKREGYERLLKMQNQRGGRIFLQDIKKPDCDDWESGLNAMECALHLEKNVNQSLLELHKLATDKNDPHLCDFLETHFLDEEVKLIKKMGDHVTNLRKMGAPESGLAEYLFERLTLKHD
modifications: chimeric human H ferritin
[1]
  entering / co-localization with lysosome (LAMP1) in brain endothelial cells: did not co-localize with the lysosome
[2]
  crossing the in vitro BBB model (transcytosis efficiency): can significantly cross the blood brain barrier
[3]
  specific binding with human brain endothelial cells: can still achieve specific binding
